The values below come from doi:10.1101/695502 (bioRxiv, 2019).

For data set [1], the target named is mm PCDH15 EC9-MAD12 (mammalian-expressed, glycosylated) (Mus musculus). As to the kind of experiment: SEC-MALS.
In data set [2] the target is mm PCDH15 EC1-MAD12 CD1-1 (Mus musculus). As to the kind of experiment: SEC-MALS. (In general: SEC sorts molecules by how far they enter the pores of the column.)
For data set [3] the target is unchanged. As to the kind of experiment: SEC-MALS. The source holds these as a separate data set.
Data set [4] concerns the target bacterially produced mm PCDH15 EC9-MAD12 (Mus musculus). As to the kind of experiment: SEC-SAXS.
Data set [5] addresses hs PCDH15 EC1-3 G16D/N369D/Q370N (Homo sapiens).
Data set [6] deals with the molecule itself. As to the kind of experiment: AUC.

Where two headings read alike, the source gives them in different places. A value given as a limit tells only on which side of the number the result lay.

As for “mm PCDH15 EC9-MAD12 (mammalian-expressed, glycosylated) (domain or fragment)”, the stoichiometry N in data set [1] came out at 2. As for “mm PCDH15 EC1-MAD12 CD1-1 (domain or fragment)”, the stoichiometry N in data set [2] and in data set [3] was 2 in each case. Molecule “bacterially produced mm PCDH15 EC9-MAD12 (domain or fragment)” had a stoichiometry N in data set [4] of 2. As to “hs PCDH15 EC1-3 G16D/N369D/Q370N (domain or fragment)”, in data set [5], the stoichiometry N stood at 2.

B1: hs PCDH15 EC2-3 WT (domain or fragment, Homo sapiens)
chain: NSPTFKHESYYATVNELTPVGTTIFTGFSGDNGATDIDDGPNGQIEYVIQYNPDDPTSNDTFEIPLMLTGNIVLRKRLNYEDKTRYFVIIQANDRAQNLNERRTTTTTLTVDVLDGDDLGPMFLPCVLVPNTRDCRPLTYQAAIPELRTPEELNPIIVTPPIQAIDQDRNIQPPSDRPGILYSILVGTPEDYPRFFHMHPRTAELSLLEPVNRDFHQKFDLVIKAEQDNGHPLPAFAGLHIEILDENN
As to B1, in data set [6], the Kd is less than 1000 nM and the “stoichiometry N” value amounted to 2.

A word on the stoichiometry N: it is a count of units in the complex or per binding partner. Usually Kd stands for the free concentration of one partner at which half of the binding sites on the other are occupied at equilibrium, for simple one-to-one binding.
